Here are results for 1 substance from patent US8278109.

Assay [1] has as its target JEG-3 derived purified hCG-H (human) (UniProt P01215). The assay can be described thus: SPR (Biacore); 7 injections of B152 at 20-100 micrograms/ml over JEG-3 hCG-H; lower end.
The target is the same in assay [2]. Nature of the assay: SPR (Biacore); 7 injections of B152 at 20-100 micrograms/ml over JEG-3 hCG-H; at 100 micrograms/ml.
The target is the same in assay [3]. Nature of the assay: SPR (Biacore); B152 concentration (100 micrograms/ml) giving 223 RU on hCG-H compared with SMA 3E8 and SMA 4D8.

Sequence of UniProt P01215 (P01215 25-116, chain 1 of 2, other chains not shown): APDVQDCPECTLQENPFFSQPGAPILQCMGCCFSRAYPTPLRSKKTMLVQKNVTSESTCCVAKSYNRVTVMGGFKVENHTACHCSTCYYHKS

For B152 (antibody), the response in assay [1] came to 60 RU; in assay [2], 223 RU. In assay [3], this substance came in with a fold antibody concentration needed for the response, against SMA 3E8 and SMA 4D8 of 50 to 100 fold.
